The text below walks through data of article PMC7755894.

This test deals with recombinant hCD25 (human IL-2Rα) (human) (UniProt P01589).
Chain of UniProt P01589 (P01589 22-240): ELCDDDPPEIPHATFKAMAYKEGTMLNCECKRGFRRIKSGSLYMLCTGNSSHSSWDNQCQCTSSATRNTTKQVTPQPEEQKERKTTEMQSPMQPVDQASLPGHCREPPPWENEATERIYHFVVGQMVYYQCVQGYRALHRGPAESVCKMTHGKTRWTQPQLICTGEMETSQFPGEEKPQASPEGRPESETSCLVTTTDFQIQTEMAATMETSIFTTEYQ

Chain of NARA1leukin (P60568 whole entry, looked up): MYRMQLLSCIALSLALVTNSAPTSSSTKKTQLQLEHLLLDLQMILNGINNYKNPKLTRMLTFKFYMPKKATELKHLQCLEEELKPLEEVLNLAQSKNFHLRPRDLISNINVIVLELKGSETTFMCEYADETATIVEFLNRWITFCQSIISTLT

In the case of “NARA1leukin (from UniProt P60568 97-153; P60568 22-96)”, the fold decrease in pSTAT5 in human CD4+ CD25+ Treg cells (PBMCs, 15 min at 37 °C); stimulation by NARA1leukin compared to hIL-2/NARA1 complexes was 30 fold.
